# Assay results taken from article PMC9989928.
# What was measured:
# Details in all cases: glycan lost; control: wild-type VMO1-myc-his6
# [1] = anti-myc western blot of total cell lysates
# [2] = cycloheximide chase, western blot of lysates
# [3] = anti-myc western blot of conditioned media
protein,measurement,setting,value
vitelline membrane outer layer protein 1 homolog (VMO1): W105F (protein) parent chain: MERGAGAKLLPLLLLLRATGFTCAQTDGRNGYTAVIEVTSGGPWGDWAWPEMCPDGFFASGFSLKVEPPQGIPGDDTALNGIRLHCARGNVLGNTHVVESQSGSWGEWSEPLWCRGGAYLVAFSLRVEAPTTLGDNTAANNVRFRCSDGEELQGPGLSWGDFGDWSDHCPKGACGLQTKIQGPRGLGDDTALNDARLFCCRS,expression_or_secretion,[1],increases
same,degradation_or_half_life,[2],increases
same,expression_or_secretion,[3],no change
